According to patent US20210101937A1 (Bicycle, published 2021):
*1 amine or outer side, *2 acyl side, *3 side chain or, on linkers, in order; H or OH if unused. Bridges are numbered along the chain shown (N, C = ends). Roman numbers before positions name the chains, in order. Where no end group is shown, it is not given here. [ ]: non-standard residue; d: D form. The star is where a group is joined. TATA = O=C(CC[*:1])N1CN(C(=O)CC[*:2])CN(C(=O)CC[*:3])C1; 1Nal = N[C@@H](Cc1cccc2ccccc12)C(=O)O; Hyp = O=C(O)[C@@H]1C[C@@H](O)CN1; hArg = N=C(N)NCCCC[C@H](N)C(=O)O; tBuAla = CC(C)(C)C[C@H](N)C(=O)O; Cysteamide = C(CS[*:3])N[*:1]; NMeA = CN[C@@H](C)C(=O)O; Nle = CCCC[C@H](N)C(=O)O; Pent4ynoyl = C#CCCC(=O)*; dNMeA = CN[C@H](C)C(=O)O; βAla = NCCC(=O)O; Mpa = O=C(O)CCS

B1: BCY12583 (peptide)
peptide 1: CP[1Nal][dE]CL[hArg]DWSTP[Hyp]WC
peptide 2: Ac-C[tBuAla]PE[dK](Pent4ynoyl)PYCFADPY[Nle]CA
modifications: linker I:1-I:5-I:15, II:1-II:8-II:15 via TATA; not fully specified (bridges); printed as CP[1Nal][dE]CL[HArg]DWSTP[HyP]WC / Ac-C[tBuAla]PE[D-Lys(PYA)]PYCFADPY[Nle]CA; also: chain 1 N-terminus joined to chain 2 dLys(PYA) by Peg5 linker (heterotandem complex)
B2: BCY12572 (peptide)
peptide 1: CPXDCMXDWSTPXWC
peptide 2: CXPEKPYCFADPYX
modifications: [Ac]C[tBuAla]PE[dK(PYA)]PYCFADPY[Nle][Cysteamine]; reactive groups bonded to TATA scaffold; CP[1Nal][dD]CM[HArg]DWSTP[HyP]WC; Cys residues bonded to TATA scaffold
B3: BCY12574 (peptide)
peptide 1: CP[1Nal][dD]CM[hArg]DWSTP[Hyp]WC
peptide 2: [Mpa][tBuAla]PE[dK](Pent4ynoyl)PYCFADPY[Nle]-Cysteamide
modifications: linker I:1-I:5-I:15 via TATA; numbers in words are those of the source; also: two bicycles joined by Peg5 linker, linker at chain B 7 to a chain's N/C-terminus via TATA
B4: BCY12585 (peptide)
peptide 1: CP[1Nal][dE]CM[hArg]EWSTP[Hyp]WC
peptide 2: Ac-C[tBuAla]PE[dK](Pent4ynoyl)PYCFADPY[Nle]CA
modifications: linker I:1-I:5-I:15, II:1-II:8-II:15 via TATA; not fully specified (bridges); printed as CP[1Nal][dE]CM[HArg]EWSTP[HyP]WC / Ac-C[tBuAla]PE[D-Lys(PYA)]PYCFADPY[Nle]CA; also: chain 1 N-terminus joined to chain 2 dLys(PYA) by Peg5 linker (heterotandem complex)
B5: BCY12236 (peptide)
peptide 1: AXDCXKVNPLCLHPDWXC
peptide 2: CXPEKPYCFADPYXCA
modifications: Ac-C[tBuAla]PE[D-Lys]PYCFADPY[Nle]CA; Cys residues bonded to TATA scaffold; [Ac]A[HArg]DC[HyP]K(PYA)VNPLCLHP[dD]W[HArg]C; Cys residues bonded to TATA scaffold
B6: BCY12237 (peptide)
peptide 1: AXDCXLVNPLCKHPDWXC
peptide 2: CXPEKPYCFADPYXCA
modifications: Ac-C[tBuAla]PE[D-Lys]PYCFADPY[Nle]CA; Cys residues bonded to TATA scaffold; [Ac]A[HArg]DC[HyP]LVNPLCK(PYA)HP[dD]W[HArg]C; Cys residues bonded to TATA scaffold
B7: BCY12379 (peptide)
peptide 1: CPXDCMXDWSTPXWC
peptide 2: CXPEKPYCFADPYXC
modifications: [Ac]C[tBuAla]PE[dK(PYA)]PYCFADPY[Nle]C; Cys residues bonded to TATA scaffold; CP[1Nal][dD]CM[HArg]DWSTP[HyP]WC; Cys residues bonded to TATA scaffold
B8: BCY12576 (peptide)
peptide 1: XXKCMXDWSTPXWC
peptide 2: CXPEXPYCFADPYXCA
modifications: Ac-C[tBuAla]PE[D-Lys(PYA)]PYCFADPY[Nle]CA; Cys residues bonded to TATA scaffold; [3-mercaptopropionic acid]P[1Nal][dK]CM[HArg]DWSTP[HyP]WC; reactive groups bonded to TATA scaffold
B9: BCY12709 (peptide)
peptide 1: CP[1Nal][dD]CM[hArg]DWSTP[Hyp]WC
peptide 2: Ac-C[tBuAla]PE[dK](Pent4ynoyl)PYCFAD[NMeA]Y[Nle]C
modifications: linker I:1-I:5-I:15, II:1-II:8-II:15 via TATA; not fully specified (bridges); also: chain 1 N-terminus joined to chain 2 dLys(PYA) by Peg5 linker (heterotandem complex)
B10: BCY12573 (peptide)
peptide 1: CP[1Nal][dD]CM[hArg]DWSTP[Hyp]WC
peptide 2: [Mpa][tBuAla]PE[dK](Pent4ynoyl)PYCFADPY[Nle]C
modifications: linker I:1-I:5-I:15 via TATA; numbers in words are those of the source; also: two bicycles joined by Peg5 linker, linker at chain B 7 at chain B 14 to a chain's N-terminus via TATA
B11: BCY12577 (peptide)
peptide 1: CPXKCMXDWSTPXX
peptide 2: CXPEXPYCFADPYXCA
modifications: Ac-C[tBuAla]PE[D-Lys(PYA)]PYCFADPY[Nle]CA; Cys residues bonded to TATA scaffold; [Ac]CP[1Nal][dK]CM[HArg]DWSTP[HyP]W[Cysteamine]; reactive groups bonded to TATA scaffold
B12: BCY12661 (peptide)
peptide 1: XPXDCMXDWSTPXWC
peptide 2: CXEEKPYCFADPYXCX
modifications: [Ac]C[tBuAla]EE(dK)PYCFADPY[Nle]C[Dap(PYA)]; carries the palmitic acid azide of Example 8 (palmitic acid, γGlu, Lys(N3)); Cys residues bonded to TATA scaffold; [PYA]CP[1Nal][dD]CM[HArg]DWSTP[HyP]WC; Cys residues bonded to TATA scaffold
B13: BCY12233 (peptide)
peptide 1: Pent4ynoyl-A[hArg]DC[Hyp]LVNPLCLHP[dD]W[hArg]C
peptide 2: Ac-C[tBuAla]PE[dK]PYCFADPY[Nle]CA
modifications: linker I:4-I:11-I:18, II:1-II:8-II:15 via TATA; linker II:N-II:5 via Peg5; also: two bicycles joined by Peg5 linker
B14: BCY12579 (peptide)
peptide 1: CPXKCMXHWSTPXWC
peptide 2: CXPEXPYCFADPYXCA
modifications: Ac-C[tBuAla]PE[D-Lys(PYA)]PYCFADPY[Nle]CA; Cys residues bonded to TATA scaffold; [Ac]CP[1Nal][dK]CM[HArg]HWSTP[HyP]WC; Cys residues bonded to TATA scaffold
B15: BCY12235 (peptide)
peptide 1: AXDCXLVNPLCLKPDWXC
peptide 2: CXPEKPYCFADPYXCA
modifications: Ac-C[tBuAla]PE[D-Lys]PYCFADPY[Nle]CA; Cys residues bonded to TATA scaffold; [Ac]A[HArg]DC[HyP]LVNPLCLK(PYA)P[dD]W[HArg]C; Cys residues bonded to TATA scaffold
B16: BCY11616 (peptide)
peptide 1: CPXDCMXDWSTPXWC
peptide 2: ACIEEKQYCFADPYXCA
modifications: Ac-ACIEE(D-K)(PYA)QYCFADPY(Nle)CA; Cys residues bonded to TATA scaffold; CP[1Nal][dD]CM[HArg]DWSTP[HyP]WC; Cys residues bonded to TATA scaffold
B17: BCY12582 (peptide)
peptide 1: CP[1Nal][dA]CM[hArg]DWSTP[Hyp]WC
peptide 2: Ac-C[tBuAla]PE[dK](Pent4ynoyl)PYCFADPY[Nle]CA
modifications: linker I:1-I:5-I:15, II:1-II:8-II:15 via TATA; not fully specified (bridges); also: chain 1 N-terminus joined to chain 2 dLys(PYA) by Peg5 linker (heterotandem complex)
B18: BCY12580 (peptide)
peptide 1: CPXKCMXEWSTPXWC
peptide 2: CXPEXPYCFADPYXCA
modifications: Ac-C[tBuAla]PE[D-Lys(PYA)]PYCFADPY[Nle]CA; Cys residues bonded to TATA scaffold; [Ac]CP[1Nal][dK]CM[HArg]EWSTP[HyP]WC; Cys residues bonded to TATA scaffold
B19: BCY12710 (peptide)
peptide 1: CP[1Nal][dD]CM[hArg]DWSTP[Hyp]WC
peptide 2: Ac-C[tBuAla]PE[dK](Pent4ynoyl)PYCFAD[dNMeA]Y[Nle]C
modifications: linker I:1-I:5-I:15, II:1-II:8-II:15 via TATA; not fully specified (bridges); also: chain 1 N-terminus joined to chain 2 dLys(PYA) by Peg5 linker (heterotandem complex)
B20: BCY12229 (peptide)
peptide 1: DXCSAGWLTMCQKLHLCPSH
peptide 2: CXPEXPYCFADPYXCA
modifications: Ac-C[tBuAla]PE[D-Lys(PYA)]PYCFADPY[Nle]CA; Cys residues bonded to TATA scaffold; [Ac]D[HArg]CSAGWLTMCQKLHLCPSH; Cys residues bonded to TATA scaffold
B21: BCY11776 (peptide)
peptide 1: CPXDCMXDWSTPXWC
peptide 2: CXPEKPYCFADPYXCX
modifications: not fully specified; [Ac]C[tBuAla]PE[dK]PYCFADPY[Nle]C[Dap(PYA)]; dK carries palmitic acid (Example 5); Cys residues bonded to TATA scaffold; CP[1Nal][dD]CM[HArg]DWSTP[HyP]WC; Cys residues bonded to TATA scaffold
B22: BCY12581 (peptide)
peptide 1: CP[1Nal][dE]CM[hArg]DWSTP[Hyp]WC
peptide 2: Ac-C[tBuAla]PE[dK](Pent4ynoyl)PYCFADPY[Nle]CA
modifications: linker I:1-I:5-I:15, II:1-II:8-II:15 via TATA; not fully specified (bridges); also: chain 1 N-terminus joined to chain 2 dLys(PYA) by Peg5 linker (heterotandem complex)
B23: BCY12578 (peptide)
peptide 1: XXKCMXDWSTPXX
peptide 2: CXPEXPYCFADPYXCA
modifications: Ac-C[tBuAla]PE[D-Lys(PYA)]PYCFADPY[Nle]CA; Cys residues bonded to TATA scaffold; [3-mercaptopropionic acid]P[1Nal][dK]CM[HArg]DWSTP[HyP]W[Cysteamine]; reactive groups bonded to TATA scaffold
B24: BCY11618 (peptide)
peptide 1: Pent4ynoyl-[βAla]CP[1Nal][dK]CM[hArg]DWSTP[Hyp]WC
peptide 2: Ac-C[tBuAla]PE[dK]PYCFADPY[Nle]CA
modifications: linker I:2-I:6-I:16, II:1-II:8-II:15 via TATA; linker II:N-II:5 via Peg5; not fully specified (some residues); also: palmitic acid on dK of chain 1
B25: BCY12377 (peptide)
peptide 1: CPXDCMXDWSTPXWC
peptide 2: CXEEKPYCFADPYXC
modifications: [Ac]C[tBuAla]EE[dK(PYA)]PYCFADPY[Nle]C; Cys residues bonded to TATA scaffold; CP[1Nal][dD]CM[HArg]DWSTP[HyP]WC; Cys residues bonded to TATA scaffold
B26: BCY12020 (peptide)
peptide 1: XCPXDCMXDWSTPXWC
peptide 2: CXPEKPYCFADPYXCX
modifications: [Ac]C[tBuAla]PE[dK]PYCFADPY[Nle]C[Dap(PYA)]; carries Palmitic acid-PEG10 (Example 7); Cys residues bonded to TATA scaffold; [PYA][B-Ala]CP[1Nal][dD]CM[HArg]DWSTP[HyP]WC; Cys residues bonded to TATA scaffold
B27: BCY12234 (peptide)
peptide 1: AXDCXLVNPLCLHPDWXCK
peptide 2: CXPEKPYCFADPYXCA
modifications: Ac-C[tBuAla]PE[D-Lys]PYCFADPY[Nle]CA; Cys residues bonded to TATA scaffold; [Ac]A[HArg]DC[HyP]LVNPLCLHP[dD]W[HArg]CK(PYA); Cys residues bonded to TATA scaffold
B28: BCY11860 (peptide)
peptide 1: Pent4ynoyl-[βAla]CP[1Nal][dK]CM[hArg]DWSTP[Hyp]WC
peptide 2: Ac-C[tBuAla]PE[dK]PYCFADPY[Nle]CA
modifications: linker I:2-I:6-I:16, II:1-II:8-II:15 via TATA; linker II:N-II:5 via Peg5; also: two bicycles joined by Peg5 linker, further acylated with a reagent shown only in a drawing

Experiments:
Assay in all cases: cell-based or functional assay
[1] = biological target: T1, CD137 (UniProt Q07011 24-255, limits assumed)
T1 sequence (Q07011 24-255 limits assumed): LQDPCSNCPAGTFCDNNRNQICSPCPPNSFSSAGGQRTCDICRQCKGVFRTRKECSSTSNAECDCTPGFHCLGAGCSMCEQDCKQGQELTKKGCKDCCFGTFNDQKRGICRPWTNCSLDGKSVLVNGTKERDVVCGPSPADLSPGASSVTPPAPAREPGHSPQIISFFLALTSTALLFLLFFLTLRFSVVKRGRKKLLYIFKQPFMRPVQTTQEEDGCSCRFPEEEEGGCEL

[2] = biological target: T1, CD137; remark: listed apart in the source
[3] = biological target: T1, CD137; remark: listed apart in the source

Binder	Fold improvement in EC50 over BCY10000 on same plate [1] [fold]	Fold improvement in Emax over BCY10000 on same plate [1] [fold]	other results
B1	0.6	1.47	
B2	0.35	1.67	
B3	0.22	0.77	
B4	1.31	1.5	
B5			Fold improvement in EC50 over BCY9173 on same plate [2]: 1.4 fold; Fold improvement in Emax over BCY9173 on same plate [2]: 0.8 fold
B6			Fold improvement in EC50 over BCY9173 on same plate [2]: 1 fold; Fold improvement in Emax over BCY9173 on same plate [2]: 0.8 fold
B7	0.91	1.29	
B8	0.23	1.45	
B9	0.08	2.15	
B10	0.74	1.34	
B11	0.25	1.06	
B12	0.34	0.5	
B13			Fold improvement in EC50 over BCY9173 on same plate [2]: 1 fold; Fold improvement in Emax over BCY9173 on same plate [2]: 0.9 fold
B14	0.29	1.07	
B15			Fold improvement in EC50 over BCY9173 on same plate [2]: 1.1 fold; Fold improvement in Emax over BCY9173 on same plate [2]: 0.8 fold
B16	0.21	1.22	
B17	1.69	1.32	
B18	0.64	0.97	
B19	0.16	1.41	
B20			EC50 [3]: 18 nM; Fold Induction over background [3]: 8 fold over background
B21	0.05	0.07	
B22	1.35	0.88	
B23	0.05	0.93	
B24	0.09	2.59	
B25	0.78	1.37	
B26	0.15	0.48	
B27			Fold improvement in EC50 over BCY9173 on same plate [2]: 1 fold; Fold improvement in Emax over BCY9173 on same plate [2]: 0.8 fold
B28	0.29	1.53	
